B1: HBGF-0.8-P2: 10-kDa heparin-binding growth factor; truncated porcine CTGF starting at residue 248 (SEQ ID NO: 2 N-terminus) (protein)
chain: ENIKKGKKCIRTPKISKPVKFELSGCTSVKTYRAKFCGVCTDGRCCTPHRTTTLPVEFKCPDGEVMKKSMMFIKTCACHYNCPGDNDIFESLYYRKMYGDMA
B2: HBGF-0.8-P1: 10-kDa heparin-binding growth factor; N-terminally truncated porcine CTGF starting at residue 247 (SEQ ID NO: 1 N-terminus) (protein)
chain: EENIKKGKKCIRTPKISKPVKFELSGCTSVKTYRAKFCGVCTDGRCCTPHRTTTLPVEFKCPDGEVMKKSMMFIKTCACHYNCPGDNDIFESLYYRKMYGDMA

Columns and labels:
[1] = Heparin affinity chromatography (NaCl required for elution); assay type: binding
Description: Fractions that contained HBGF activity (fractions 16-19 collected after the cation exchange chromatography and heparin affinity chromatography) were pooled, diluted, and subjected to a second cycle of heparin affinity FPLC using a TSK heparin 5PW column. To perform the second heparin affinity purification step, biologically active HBGF fractions containing the 0.8 M NaCl eluate from the EconoPac heparin purification step were pooled, diluted 3-fold with 20 mM Tris-HCl (pH 7.4), and clarified by passage through a 0.2-μm filter. The sample was applied at 2 ml/min to a TSK heparin 5PW column (0.8×7.5 cm; TosoHaas, Philadelphia, Pa.), that was washed and eluted as described above, except that CHAPS was omitted from the buffers and fractions of 0.5 ml were collected. […] HBGF polypeptide was again eluted by 0.8 M NaCl (fractions 31-36), but was resolved as two peaks of mitogenic activity which had distinct heparin binding properties. The activity peaks were termed HGBF-0.8-P1 for fractions 31-34 and HGBF-0.8-P2 for fractions 35 and 36. To assess the relative mitogenic capability of HBGFs with IGF-1, EGF, bFGF, and PDGF-AB, DNA synthesis assays on 3T3 cells were performed (Table 4). Biologically active fractions containing the 0.3-0.6 M NaCl eluate from the Bio-Rex column were pooled, diluted 3-fold with 20 mM Tris-HCL (pH 7.4) containing 0.1% CHAPS, passed through a 0.45-μm membrane filter, placed in a siliconized polypropylene vessel, and applied with a peristaltic pump to an EconoPac heparin column (0.7×3.6 cm; Bio-Rad) at 2 ml/min. The heparin column was then washed with 50 ml of 20 mM Tris-HCl buffer, 0.2 M NaCl, 0.1% CHAPS and developed at 1 ml/min with a 40 ml gradient of 0.1-2.0 M NaCl in 20 mM Tris-HCl, 0.1% CHAPS (pH 7.4) using a fast protein liquid chromatography (FPLC) system (Pharmacia Biotech Inc.). Fractions (1 ml) were collected into siliconized tubes during NaCl gradient elution and tested for 3T3 cell mitogenic activity.

Balb/c 3T3 fibroblasts = test: DNA synthesis ([3H]thymidine incorporation) assay in confluent quiescent Balb/c 3T3 cells; assay type: cell-based
Description: To assess the relative mitogenic capability of HBGFs with IGF-1, EGF, bFGF, and PDGF-AB, DNA synthesis assays on 3T3 cells were performed (Table 4). Biologically active fractions containing the 0.3-0.6 M NaCl eluate from the Bio-Rex column were pooled, diluted 3-fold with 20 mM Tris-HCL (pH 7.4) containing 0.1% CHAPS, passed through a 0.45-μm membrane filter, placed in a siliconized polypropylene vessel, and applied with a peristaltic pump to an EconoPac heparin column (0.7×3.6 cm; Bio-Rad) at 2 ml/min. The heparin column was then washed with 50 ml of 20 mM Tris-HCl buffer, 0.2 M NaCl, 0.1% CHAPS and developed at 1 ml/min with a 40 ml gradient of 0.1-2.0 M NaCl in 20 mM Tris-HCl, 0.1% CHAPS (pH 7.4) using a fast protein liquid chromatography (FPLC) system (Pharmacia Biotech Inc.). Fractions (1 ml) were collected into siliconized tubes during NaCl gradient elution and tested for 3T3 cell mitogenic activity. Column fractions were tested for their ability to stimulate DNA synthesis as measured by [^3H]thymidine incorporation into the DNA of confluent quiescent Balb/c 3T3 cells grown in 200 μl of Dulbecco's modified Eagle's medium, 10% bovine calf serum in 96-well culture plates as described (Kim, G. Y., et al., Biol. Reprod. 52, 561-571 (1995)). Dose-response curves to purified growth factors from ULF were established by assaying each dose in triplicate, with data computed as mean±S.D. Statistical significance of the effects of 1-100 μg/ml porcine heparin (Sigma) on growth factor activity was determined by Students' t test.

[2] = preparation after C8HPLC (step 1), bioactivity diminished due to acid exposure

| Molecule | NaCl required for elution from a heparin affinity column [1] [M] | ED50: concentration of HBGF-0.8 preparation required to give 50% maximal DNA synthesis (Balb/c 3T3 fibroblasts; [2]) [µg/mL] | ED50: concentration of HBGF-0.8 preparation required to give 50% maximal DNA synthesis (Balb/c 3T3 fibroblasts; preparation after TSK-Hep step) [µg/mL] | Heparin affinity as compared with HBGF-0.8-P2 ([1]; TSK heparin 5PW column) | ED50: concentration of HBGF-0.8 preparation required to give 50% maximal DNA synthesis (Balb/c 3T3 fibroblasts; preparation after C8HPLC, step 2, bioactivity diminished due to acid exposure) [µg/mL] |
| --- | --- | --- | --- | --- | --- |
| B1 | 0.8 | 0.25 | 0.417 |  |  |
| B2 | 0.8 | 0.25 | 2.23 | lower heparin affinity | 0.025 |

— patent US7897732B2, “Antibodies to heparin-binding growth factor (HBGF) polypeptides” (Childrens Hospital Research Foundation, priority 1997, dated 2011)
